From PMC12520364, “UBXN7 facilitates SARS-CoV-2 replication via inhibiting the K48-linked ubiquitination of viral N protein” (PLOS Pathogens, 2025)

B1: purified HA-UBXN7 (natural protein, UniProt O94888 1-489, looked up)
chain: MAAHGGSAASSALKGLIQQFTTITGASESVGKHMLEACNNNLEMAVTMFLDGGGIAEEPSTSSASVSTVRPHTEEEVRAPIPQKQEILVEPEPLFGAPKRRRPARSIFDGFRDFQTETIRQEQELRNGGAIDKKLTTLADLFRPPIDLMHKGSFETAKECGQMQNKWLMINIQNVQDFACQCLNRDVWSNEAVKNIIREHFIFWQVYHDSEEGQRYIQFYKLGDFPYVSILDPRTGQKLVEWHQLDVSSFLDQVTGFLGEHGQLDGLSSSPPKKCARSESLIDASEDSQLEAAIRASLQETHFDSTQTKQDSRSDEESESELFSGSEEFISVCGSDEEEEVENLAKSRKSPHKDLGHRKEENRRPLTEPPVRTDPGTATNHQGLPAVDSEILEMPPEKADGVVEGIDVNGPKAQLMLRYPDGKREQITLPEQAKLLALVKHVQSKGYPNERFELLTNFPRRKLSHLDYDITLQEAGLCPQETVFVQERN
notes: May be the same construct as m1 (pCAGGS-HA); source: purified
B2: Purified recombinant UBXN7-his protein (natural protein, UniProt O94888 1-489, looked up)
chain: B1 chain
notes: The host of UBXN7-his is therefore told in two ways; also called His-tagged UBXN7; source: HEK293F, transfected, purified (Ni-NTA, Superdex200)

Assays:
[1] = molecular target: T1, Purified recombinant His-N protein from E. coli (SARS-CoV-2, UniProt P0DTC9 1-419); experiment: pull-down; details: both partners purified
T1 construct: SARS-CoV-2 N protein, full-length N gene of NC_045512.2 in pET-28a(+); also called prokaryotic recombinant SARS-CoV-2 N protein; not shown: 6xHis, N-terminal, kept

[2] = molecular target: T2, Fc-tagged SARS-CoV-2 N protein (SARS-CoV-2, UniProt P0DTC9 1-419); experiment: pull-down; details: both partners purified
T2 construct: also called N-Fc; SARS-CoV-2 N-Fc

Binder	binding result [1]	binding result [2]
B1	binds	–
B2	–	binds
